Results published in paper PMC10165364, “Pathological variants in TOP3A cause distinct disorders of mitochondrial and nuclear genome stability”.
Where a chain is given by its changes, count along the chain named.

Key:
Conditions in all cases: protein: recombinant; tags: N-terminal TEV-cleavable 6xHis, cleaved; label: 5' 32P; single strand
[1] = molecular target: T1, TOP3A Met575Val (Homo sapiens, UniProt Q13472 16-934, M575V); assay: EMSA; up to 250 fmol protein; 25 mM HEPES pH 7.5, 70 mM NaCl, 100 ug/ml BSA, 1 mM DTT, 10% glycerol; 10 fmol oligo, 0-250 fmol TOP3A in 20 ul; 37 C 15 min, then ice; 8% native PAGE in 0.5x TBE at 4 C
T1 sequence: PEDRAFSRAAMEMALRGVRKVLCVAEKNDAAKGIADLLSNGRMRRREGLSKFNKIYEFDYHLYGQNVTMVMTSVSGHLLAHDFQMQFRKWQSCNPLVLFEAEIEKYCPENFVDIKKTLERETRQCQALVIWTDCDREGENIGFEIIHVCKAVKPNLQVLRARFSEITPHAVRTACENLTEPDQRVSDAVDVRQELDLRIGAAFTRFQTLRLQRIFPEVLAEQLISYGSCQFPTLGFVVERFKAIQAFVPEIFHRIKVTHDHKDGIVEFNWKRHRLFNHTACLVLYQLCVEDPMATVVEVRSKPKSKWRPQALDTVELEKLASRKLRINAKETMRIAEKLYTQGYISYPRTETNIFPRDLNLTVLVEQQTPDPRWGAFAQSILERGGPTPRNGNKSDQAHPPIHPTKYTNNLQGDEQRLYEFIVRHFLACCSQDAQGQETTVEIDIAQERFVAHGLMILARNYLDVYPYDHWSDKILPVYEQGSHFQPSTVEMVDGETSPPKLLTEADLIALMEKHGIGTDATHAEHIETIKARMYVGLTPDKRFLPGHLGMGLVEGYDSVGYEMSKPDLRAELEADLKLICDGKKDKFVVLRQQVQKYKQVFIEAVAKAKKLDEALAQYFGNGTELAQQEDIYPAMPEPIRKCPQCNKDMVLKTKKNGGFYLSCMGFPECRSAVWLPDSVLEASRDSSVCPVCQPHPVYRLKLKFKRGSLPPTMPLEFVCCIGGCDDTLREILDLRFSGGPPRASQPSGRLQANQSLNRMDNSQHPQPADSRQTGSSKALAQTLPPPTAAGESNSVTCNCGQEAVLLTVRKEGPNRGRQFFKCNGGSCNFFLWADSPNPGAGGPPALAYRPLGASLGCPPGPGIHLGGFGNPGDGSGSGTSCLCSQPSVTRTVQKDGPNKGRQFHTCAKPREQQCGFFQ

[2] = molecular target: T2, TOP3A Leu37Val (Homo sapiens, UniProt Q13472 16-934, L37V); assay: as above
T2 sequence: T1 sequence with L22V, V560M

[3] = molecular target: T3, TOP3A Ser810* (Homo sapiens, UniProt Q13472 16-809); assay: EMSA; comparable to WT; 25 mM HEPES pH 7.5, 70 mM NaCl, 100 ug/ml BSA, 1 mM DTT, 10% glycerol; 10 fmol oligo, 0-250 fmol TOP3A in 20 ul; 37 C 15 min, then ice; 8% native PAGE in 0.5x TBE at 4 C
T3 sequence: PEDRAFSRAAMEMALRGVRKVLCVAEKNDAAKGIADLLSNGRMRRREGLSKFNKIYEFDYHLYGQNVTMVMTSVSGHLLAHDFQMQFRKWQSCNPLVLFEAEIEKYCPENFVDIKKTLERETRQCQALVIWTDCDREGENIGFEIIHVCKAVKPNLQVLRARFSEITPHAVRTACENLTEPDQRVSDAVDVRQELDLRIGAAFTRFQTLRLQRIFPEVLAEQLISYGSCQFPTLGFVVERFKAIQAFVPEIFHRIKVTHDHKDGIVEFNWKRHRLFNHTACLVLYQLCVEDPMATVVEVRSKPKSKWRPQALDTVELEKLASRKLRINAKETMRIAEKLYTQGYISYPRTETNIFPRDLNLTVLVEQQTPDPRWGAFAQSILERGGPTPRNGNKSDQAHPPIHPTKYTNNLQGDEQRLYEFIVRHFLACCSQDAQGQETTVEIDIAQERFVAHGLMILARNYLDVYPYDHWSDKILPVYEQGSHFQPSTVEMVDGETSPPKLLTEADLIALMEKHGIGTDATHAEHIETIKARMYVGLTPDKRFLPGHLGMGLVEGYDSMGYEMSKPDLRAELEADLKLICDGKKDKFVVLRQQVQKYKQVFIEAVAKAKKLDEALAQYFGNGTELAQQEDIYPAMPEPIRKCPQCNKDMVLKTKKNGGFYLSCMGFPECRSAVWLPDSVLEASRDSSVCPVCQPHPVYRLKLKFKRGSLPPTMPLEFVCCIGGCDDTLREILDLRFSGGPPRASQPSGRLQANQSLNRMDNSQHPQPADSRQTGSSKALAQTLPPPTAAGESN

B1: EMSA substrate 80-mer (ssDNA)
DNA: ACCACATTAACAACATAAAACCCTCATTCACACGAGAAAACACCCTCATGTTCATACACCTATCCCCCATTCTCCTCCTA
Question: Which results are given for B1?
Answer: binding result [1]: no binding; binding result [2]: no binding; binding result [3]: binds
